From patent US20220396632A1 (VERSEAU THERAPEUTICS, published 2022)
One block for each binder: values may come before it. Non-standard residues stand in square brackets, D forms with d. No end group written: not given here. *: point of attachment. Biotin = O=C1N[C@H]2[C@H](CS[C@H]2CCCCC(=O)*)N1; sY = N[C@@H](Cc1ccc(OS(=O)(=O)O)cc1)C(=O)O

Key:
[1] = target: T1, Human fibrinogen protein (ThermoFisher, RP-43142) (human, UniProt P02671 20-629; P02675 31-491; P02679 27-453, limits assumed, natural sulfotyrosines); assay: ELISA, 50 nM mAb
T1 construct: mature; Native dimer with 3 pairs of non-identical chains; also called gamma-fibrinogen; γ fibrinogen protein
T1 sequence (looked up) 1: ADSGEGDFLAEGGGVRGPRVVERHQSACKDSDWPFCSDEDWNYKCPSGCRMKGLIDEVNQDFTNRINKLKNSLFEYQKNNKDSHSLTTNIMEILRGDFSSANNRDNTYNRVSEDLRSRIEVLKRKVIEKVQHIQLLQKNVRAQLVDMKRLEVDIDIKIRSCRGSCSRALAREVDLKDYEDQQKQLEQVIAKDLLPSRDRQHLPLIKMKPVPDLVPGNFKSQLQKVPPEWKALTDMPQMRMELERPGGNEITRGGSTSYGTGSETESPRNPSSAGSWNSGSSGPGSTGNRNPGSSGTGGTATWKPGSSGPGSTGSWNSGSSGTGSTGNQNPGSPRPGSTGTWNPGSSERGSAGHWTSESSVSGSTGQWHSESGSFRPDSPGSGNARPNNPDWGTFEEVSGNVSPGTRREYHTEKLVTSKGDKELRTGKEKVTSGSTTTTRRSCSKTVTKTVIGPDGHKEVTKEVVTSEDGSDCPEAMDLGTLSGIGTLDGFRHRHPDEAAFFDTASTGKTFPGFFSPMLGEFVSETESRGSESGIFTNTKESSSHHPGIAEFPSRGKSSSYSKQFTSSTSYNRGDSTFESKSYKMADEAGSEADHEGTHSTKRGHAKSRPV
T1 sequence (looked up) 2: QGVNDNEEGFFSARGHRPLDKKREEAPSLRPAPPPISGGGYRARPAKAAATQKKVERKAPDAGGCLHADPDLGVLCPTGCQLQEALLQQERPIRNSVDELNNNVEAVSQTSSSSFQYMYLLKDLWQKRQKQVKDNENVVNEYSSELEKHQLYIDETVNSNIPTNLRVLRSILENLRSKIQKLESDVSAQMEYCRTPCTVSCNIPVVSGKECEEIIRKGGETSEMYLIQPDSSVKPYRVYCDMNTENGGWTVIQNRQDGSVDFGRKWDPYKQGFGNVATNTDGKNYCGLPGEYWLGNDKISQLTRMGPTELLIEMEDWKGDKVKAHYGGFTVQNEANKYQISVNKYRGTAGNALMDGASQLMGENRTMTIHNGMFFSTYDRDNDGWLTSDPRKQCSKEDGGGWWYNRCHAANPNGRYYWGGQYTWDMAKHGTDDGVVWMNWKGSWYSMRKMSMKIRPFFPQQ
T1 sequence (looked up) 3: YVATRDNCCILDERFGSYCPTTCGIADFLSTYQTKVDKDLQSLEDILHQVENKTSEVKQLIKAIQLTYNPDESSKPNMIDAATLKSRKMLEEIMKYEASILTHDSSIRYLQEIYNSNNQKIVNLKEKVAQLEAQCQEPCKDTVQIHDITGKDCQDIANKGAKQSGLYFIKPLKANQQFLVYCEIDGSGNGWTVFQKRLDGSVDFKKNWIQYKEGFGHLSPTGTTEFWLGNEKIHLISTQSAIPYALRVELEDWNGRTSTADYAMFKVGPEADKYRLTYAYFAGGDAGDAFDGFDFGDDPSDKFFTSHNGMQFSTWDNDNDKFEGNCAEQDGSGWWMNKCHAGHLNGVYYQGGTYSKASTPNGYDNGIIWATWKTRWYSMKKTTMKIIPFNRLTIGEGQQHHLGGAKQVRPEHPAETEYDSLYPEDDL
Protocol: (§1) Recombinant PSGL-1-hFc1 chimera protein consisting of PSGL-1's extracellular domain (ECD) served as a positive control. […] Primary antibody was added (25 ul per well) in duplicate at 50 nM in assay buffer (blocking buffer containing 0.05% Tween®20) into test and control (just blocked) wells and the plate incubated for 45 min at 37° C.

[2] = target: T2, Sulfotyrosine D6 biotin peptide (human); assay: ELISA, 50 nM mAb
T2 construct: also called D6 peptide
T2 peptide: ENSSFY[sY][sY]D[sY]LDEVAFGGK(Biotin)
Protocol: as §1

[3] = target: T3, Recombinant human PSGL-1(ECD)-hFc1 (R&D Systems, Cat. 3345-PS) (human, UniProt Q14242 42-305); assay: ELISA, 50 nM mAb
T3 construct: Bought; Gln42-Val295 counted on AAC50061; also called PSGL-1-Fc; PSGL-1-hFc1 chimera; not shown: human IgG1 Fc, Pro100-Lys330
T3 sequence: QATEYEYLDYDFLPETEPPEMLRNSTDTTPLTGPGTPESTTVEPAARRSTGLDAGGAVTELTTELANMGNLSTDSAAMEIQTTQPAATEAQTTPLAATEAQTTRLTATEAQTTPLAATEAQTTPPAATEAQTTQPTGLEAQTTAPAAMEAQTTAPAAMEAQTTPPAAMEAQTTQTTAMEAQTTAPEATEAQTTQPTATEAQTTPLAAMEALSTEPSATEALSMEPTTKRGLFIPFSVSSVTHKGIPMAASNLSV
Protocol: as §1

SulfoTyr C4 peptide = target: T4, SulfoTyr C4 peptide (not fully specified; Y4, Y7 and Y9 sulfated (SO3); C-terminal biotin); assay: ELISA, 50 nM mAb
T4 construct: also called C4 alpha chain peptide; human sulfotyrosinylated C4 peptide
T4 peptide: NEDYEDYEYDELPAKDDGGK
Protocol: as §1

[4] = target: T5, Sulfotyr fibrinogen γ peptide (not fully specified; Y8 and Y12 sulfated (SO3); C-terminal biotin); assay: ELISA, 50 nM mAb
T5 construct: also called Fibrinogen gamma peptide; human sulfotyrosinylated fibrinogen peptide
T5 peptide: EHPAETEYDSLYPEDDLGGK
Protocol: as §1

[5] = target: T6, Sulfotyrosine CCR2b biotin peptide (human); assay: ELISA, 50 nM mAb
T6 construct: also called CCR2b peptide
T6 peptide: TTFFD[sY]D[sY]GAPSHGGK(Biotin)
Protocol: as §1

[6] = target: T7, Human complement C4 protein (Millipore Sigma, Cat. 204886) (human, UniProt P0C0L4 20-675; P0C0L4 680-1446; P0C0L4 1454-1744, limits assumed, natural sulfotyrosines); assay: ELISA, 50 nM mAb
T7 construct: mature
T7 sequence (P0C0L4 20-675 limits assumed, form in doubt, chain 1 of 3): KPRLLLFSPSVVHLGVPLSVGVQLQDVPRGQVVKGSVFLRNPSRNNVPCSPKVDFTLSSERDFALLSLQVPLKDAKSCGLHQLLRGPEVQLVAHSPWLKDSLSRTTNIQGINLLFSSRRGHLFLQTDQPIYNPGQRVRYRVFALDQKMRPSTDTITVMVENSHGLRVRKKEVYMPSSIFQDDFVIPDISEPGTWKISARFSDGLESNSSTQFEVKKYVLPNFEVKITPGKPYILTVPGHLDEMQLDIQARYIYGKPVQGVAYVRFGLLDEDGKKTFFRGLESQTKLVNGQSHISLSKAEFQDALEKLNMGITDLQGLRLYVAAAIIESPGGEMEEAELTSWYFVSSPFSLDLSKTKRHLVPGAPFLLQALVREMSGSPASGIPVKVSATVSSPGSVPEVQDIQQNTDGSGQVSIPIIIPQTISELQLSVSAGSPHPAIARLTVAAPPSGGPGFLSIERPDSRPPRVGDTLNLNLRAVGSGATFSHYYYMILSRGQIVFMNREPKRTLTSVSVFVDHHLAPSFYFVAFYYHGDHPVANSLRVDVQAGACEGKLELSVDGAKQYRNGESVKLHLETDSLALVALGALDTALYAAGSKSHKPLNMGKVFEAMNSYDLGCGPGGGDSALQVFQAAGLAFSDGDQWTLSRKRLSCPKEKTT
T7 sequence (P0C0L4 680-1446 limits assumed, form in doubt, chain 2 of 3): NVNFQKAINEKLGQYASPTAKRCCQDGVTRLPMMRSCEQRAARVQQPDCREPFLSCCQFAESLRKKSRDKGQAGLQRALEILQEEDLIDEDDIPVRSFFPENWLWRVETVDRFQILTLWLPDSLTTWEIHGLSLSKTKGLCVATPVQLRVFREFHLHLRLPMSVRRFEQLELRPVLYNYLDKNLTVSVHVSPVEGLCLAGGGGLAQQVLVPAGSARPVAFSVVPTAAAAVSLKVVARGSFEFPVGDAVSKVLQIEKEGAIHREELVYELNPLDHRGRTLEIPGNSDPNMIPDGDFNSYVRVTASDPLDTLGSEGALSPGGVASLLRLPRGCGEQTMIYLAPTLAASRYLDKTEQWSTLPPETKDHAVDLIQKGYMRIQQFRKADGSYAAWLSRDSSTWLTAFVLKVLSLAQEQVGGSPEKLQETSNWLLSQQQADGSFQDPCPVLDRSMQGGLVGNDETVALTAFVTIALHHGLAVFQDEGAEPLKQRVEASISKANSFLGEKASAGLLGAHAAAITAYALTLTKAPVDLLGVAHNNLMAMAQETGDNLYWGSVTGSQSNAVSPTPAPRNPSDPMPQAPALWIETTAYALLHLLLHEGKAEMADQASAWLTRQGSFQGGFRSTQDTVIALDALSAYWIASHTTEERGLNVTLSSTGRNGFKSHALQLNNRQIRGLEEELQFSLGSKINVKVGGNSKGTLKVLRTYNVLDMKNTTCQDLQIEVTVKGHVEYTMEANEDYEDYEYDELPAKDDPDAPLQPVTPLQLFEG
T7 sequence (P0C0L4 1454-1744 limits assumed, form in doubt, chain 3 of 3): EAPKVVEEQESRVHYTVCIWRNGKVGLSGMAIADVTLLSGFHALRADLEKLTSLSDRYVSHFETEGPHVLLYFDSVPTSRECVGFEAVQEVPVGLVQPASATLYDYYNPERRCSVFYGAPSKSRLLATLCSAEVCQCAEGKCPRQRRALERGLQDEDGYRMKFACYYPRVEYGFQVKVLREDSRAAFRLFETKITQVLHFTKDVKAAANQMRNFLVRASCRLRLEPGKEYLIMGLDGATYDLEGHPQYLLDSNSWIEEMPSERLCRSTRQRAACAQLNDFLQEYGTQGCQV
Protocol: as §1

SulfoCCK biotin peptide = target: T8, SulfoCCK biotin peptide (human); assay: ELISA, 50 nM mAb
T8 construct: also called sulfotyrosine CCK peptide
T8 peptide: SHRISDRD[sY]MGWMDFGGK(Biotin)
Protocol: as §1

[7] = target: T9, Biotin PSGL-1(42-62) peptide, unmodified (human, C-terminal Lys-biotin); assay: ELISA, immobilized biotin peptide
T9 construct: Residues 42-62 followed by GGGK-biotin; also called WT; wild-type
T9 peptide: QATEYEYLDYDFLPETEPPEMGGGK
Protocol: (§2) A typical ELISA was performed by coating high binding half-well plates (Corning Cat. #3690) with 3 ug/mL/25 ul per well of biotinylated N-terminal PSGL-1 peptides, which incorporated residues 42 to 62 of the protein, in PBS, pH 7.4, overnight at 4° C. The peptide was unmodified or contained sulfated tyrosine at all 3 tyrosine positions (46, 48, and 51) or at one position (tyr51) (Table 7).
(§3) PSGL-1 protein or peptide served as a positive control. […] […] […] For each antibody, duplicate values were averaged and average assay background was subtracted.

[8] = target: T10, Scrambled Y42,52,63(SO3) PSGL-1(42-62) biotin peptide (sulfotyrosine at peptide positions 1, 11 and 22; C-terminal Lys-biotin); assay: ELISA, immobilized biotin peptide
T10 peptide: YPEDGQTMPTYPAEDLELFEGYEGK
Protocol: as §2, §3

[9] = target: T11, Biotin Y46,48,51(SO3) PSGL-1(42-62) peptide (human, sulfotyrosine at Y46, Y48 and Y51; C-terminal Lys-biotin); assay: ELISA, immobilized biotin peptide
T11 construct: also called fully sulfated N-terminal PSGL-1 peptide
T11 peptide: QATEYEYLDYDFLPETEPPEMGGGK
Protocol: as §2, §3

B2: 02E01 (antibody, IgG4, V domains shown)
VH: EVQLVQSGGGVVQPGRSLRLSCAASGFTFSRYGMHWVRQAPGKGLEWVSVISYDGNNKYYADSVKGRFTISRDNSKNTVYLQMNSLRADDTAVYYCARNVPVTNFGYWGQGTLVTVSS
VL: QSALTQPASVSGSPGQSITISCTGTSSDVGGYNYVSWYQQHPGKAPKLMIYDVSKRPSGVSNRFSGSKSGNTASLTISGLQAEDEADYYCSSYTRPGRVFGGGTKLTVL
- binding normalized to PSGL-1 [1]: -0.18
- binding result [1]: no binding (tested: 50 nM)
- binding normalized to PSGL-1 [2]: 1.48
- binding normalized to PSGL-1 (SulfoTyr C4 peptide): 0.94
- binding normalized to PSGL-1 [4]: 1.13
- binding normalized to PSGL-1 [5]: 0.56
- binding normalized to PSGL-1 [6]: 0.87
- binding normalized to PSGL-1 (SulfoCCK biotin peptide): 0.5
- A450nm, 20 nM mAb [7]: 2.07 A450nm
- A450nm, 20 nM mAb [8]: 0.03 A450nm
- binding result [8]: no binding (tested: 20 nM)
- A450nm, 20 nM mAb [9]: 2.5 A450nm

B3: 02E06 (antibody, IgG4, V domains shown)
VH: QVQLVQSGAEVKKPGASVKVSCKASGYSFTDYYMHWVRQAPGQGLEWMGWMNPNSGNTGYAQTFQGRVTMTRNTSISTAYMELSSLRSEDTAVYYCARGRRVRGTPTFEYWGQGTLVTVSS
VL: QSVVTQPPSASGTPGQRVTISCSGRSSNIGSYTVNWFQHLPGTGPKLLIYGNNQRPSGVPGRFSGSKSGTSASLAISGLQSNDEATYYCAAWDDSLNGHYVFGTGTKVTVL
- binding normalized to PSGL-1 [1]: 0.2
- A450nm [3]: 1.8 A450nm
- binding normalized to PSGL-1 (SulfoTyr C4 peptide): 1.28
- binding normalized to PSGL-1 [4]: 1.34
- binding normalized to PSGL-1 [5]: 1.19
- binding normalized to PSGL-1 [6]: 1.24
- binding normalized to PSGL-1 (SulfoCCK biotin peptide): 1.21
- EC50 [7]: > 500 nM
- A450nm, 20 nM mAb [8]: 0.12 A450nm
- A450nm, 20 nM mAb [9]: 2.6 A450nm
- EC50 [9]: 0.17 nM

Other lines, results leading:

- binding normalized to PSGL-1 [1]: -0.07
- binding result [1]: no binding (tested: 50 nM)
- binding normalized to PSGL-1 [2]: 0.42
- A450nm [3]: 1.7 A450nm
- binding normalized to PSGL-1 (SulfoTyr C4 peptide): 0.41
- binding normalized to PSGL-1 [4]: 0.57
- binding normalized to PSGL-1 [5]: 0.01
- binding result [5]: no binding (tested: 50 nM)
- binding normalized to PSGL-1 [6]: 0.56
- binding normalized to PSGL-1 (SulfoCCK biotin peptide): 0.13
- EC50 [7]: 5.1 nM
- A450nm, 20 nM mAb [8]: 0.01 A450nm
- binding result [8]: no binding (tested: 20 nM)
- A450nm, 20 nM mAb [9]: 2.5 A450nm
- EC50 [9]: 1.7 nM
B1: 03B04 (antibody, IgG4, V domains shown)
VH: EVKLLESGGGLVKPGGSLRLSCAASGFAFSRYTMNWVRQAPGKGLEWVSSISSSSSYIYYADSVKGRFTISRDNAKNSLVLQMNSLRPEDTAVYYCARGGIAANDYWGQGTLVTVSS
VL: EIVMTQTPLSLPVTLGQPASISCRSSRNLVHYDGNTYLSWFHQRPGQPPRRLIYKISNRESGVPDRFSGSGSGTDFTLKISRVEAEDVGVYYCLQHTHWPWTFGPGTKVEIK

- binding normalized to PSGL-1 [1]: 0.03
- binding normalized to PSGL-1 [2]: 1.2
- A450nm [3]: 1.78 A450nm
- binding normalized to PSGL-1 (SulfoTyr C4 peptide): 0.89
- binding normalized to PSGL-1 [4]: 0.49
- binding normalized to PSGL-1 [5]: 0.79
- binding normalized to PSGL-1 [6]: 0.6
- binding normalized to PSGL-1 (SulfoCCK biotin peptide): 0.66
- binding result [8]: no binding (tested: 20 nM)
- A450nm, 20 nM mAb [9]: 2.6 A450nm
B4: 08C07 (antibody, IgG4, V domains shown)
VH: QMQLVQSGAEVKKPGSSVKVSCKASGGTFSNYGMIWVRQAPRQGLEWMGRIIPFLDKPDYSEKFQDRITFTADKSTSTVYMELRGLRSDDTAVYYCAKWTSTLQGITTGQTWGQGTLVTVSS
VL: QPVLTQPPSASGTPGQRVTISCSGSSSNIGGSYMYWYQQFPGTAPKLLIYRNNQRPSGVPDRFSGSKSGTSASLAISGLRSEDEADYYCAAWDVSLSGWVFGGGTKLTVL

- binding normalized to PSGL-1 [1]: 0.13
- A450nm [3]: 1.69 A450nm
- binding normalized to PSGL-1 (SulfoTyr C4 peptide): 1.41
- binding normalized to PSGL-1 [4]: 1.44
- binding normalized to PSGL-1 [5]: 1.63
- binding normalized to PSGL-1 [6]: 1.38
- binding normalized to PSGL-1 (SulfoCCK biotin peptide): 1.66
- EC50 [7]: > 500 nM
- binding result [8]: no binding (tested: 20 nM)
- A450nm, 20 nM mAb [9]: 2.58 A450nm
- EC50 [9]: 3.7 nM
B5: 07G01 (antibody, V domains shown)
VH: EVKLLESGGGLVRPGGSLRLSCAASGFTLSNYAMSWVRQAPGKGLEWVSAISGVGITTYYADSVKGRFIISRDNSKNTVYLQMNSLRAEDTAVYYCAKSRGGGAFDYWGQGTLVTVSS
VL: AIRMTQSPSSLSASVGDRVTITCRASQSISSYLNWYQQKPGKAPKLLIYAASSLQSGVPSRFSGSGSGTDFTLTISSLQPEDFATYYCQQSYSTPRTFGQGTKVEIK
